From US20220298235A1 (AKESO BIOPHARMA, published 2022)

T1: Human IL12 (His Tag) (human, UniProt P29459 23-219; P29460 23-328)
T1 construct: Bought His-tagged heterodimer
T1 sequence (looked up) 1: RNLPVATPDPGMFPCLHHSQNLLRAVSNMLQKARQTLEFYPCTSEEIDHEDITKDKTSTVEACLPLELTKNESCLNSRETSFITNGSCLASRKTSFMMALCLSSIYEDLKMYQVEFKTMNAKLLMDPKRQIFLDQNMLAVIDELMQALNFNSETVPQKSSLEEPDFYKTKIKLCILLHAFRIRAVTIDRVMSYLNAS
T1 sequence (looked up) 2: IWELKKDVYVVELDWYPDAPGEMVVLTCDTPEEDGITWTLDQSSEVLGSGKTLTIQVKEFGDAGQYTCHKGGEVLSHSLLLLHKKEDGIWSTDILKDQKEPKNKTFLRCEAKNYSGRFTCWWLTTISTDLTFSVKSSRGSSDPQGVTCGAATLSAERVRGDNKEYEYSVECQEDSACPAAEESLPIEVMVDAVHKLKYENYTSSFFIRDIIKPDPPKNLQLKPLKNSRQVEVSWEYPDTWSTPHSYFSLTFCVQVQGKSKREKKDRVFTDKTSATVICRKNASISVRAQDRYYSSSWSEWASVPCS

T2: human IL-23 (IL-23-His-Biotin) (human, UniProt Q9NPF7 20-189; P29460 23-328, biotin label, site not stated)
T2 construct: Akesobio lot 20161209; His-tagged and biotinylated
T2 sequence (looked up) 1: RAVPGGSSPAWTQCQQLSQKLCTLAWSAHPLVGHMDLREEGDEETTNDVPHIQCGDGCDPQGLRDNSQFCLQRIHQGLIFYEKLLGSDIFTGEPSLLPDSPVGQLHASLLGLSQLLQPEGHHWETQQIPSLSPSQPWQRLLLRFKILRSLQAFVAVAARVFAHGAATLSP
T2 sequence (looked up) 2: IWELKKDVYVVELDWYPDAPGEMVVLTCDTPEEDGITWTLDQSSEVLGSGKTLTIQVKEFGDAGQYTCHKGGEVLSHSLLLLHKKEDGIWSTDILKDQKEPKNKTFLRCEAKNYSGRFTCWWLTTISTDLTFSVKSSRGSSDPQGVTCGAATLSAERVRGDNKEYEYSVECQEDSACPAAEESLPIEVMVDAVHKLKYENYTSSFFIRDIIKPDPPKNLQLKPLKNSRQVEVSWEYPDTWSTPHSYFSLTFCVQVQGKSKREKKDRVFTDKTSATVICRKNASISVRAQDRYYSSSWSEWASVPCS


Key:
[1] = target: T1, Human IL12 (His Tag); test: FACS competition, IL-12-His 20 nM on 293T-IL-12Rβ1&IL-23R cells; antibody 0.37 µg/mL
Procedure: (§1) 200 μL of 1% PBSA was added into each sample, and the mixture was centrifuged at 700×g for 5 min to discard the supernatant. According to experiment design, correspondingly diluted antibody (highest final concentration of 30 μg/mL, 3-fold dilution, 8 concentrations in total) and human IL-12 (Sino Biological, Cat. No.: CT-050-H08H-20) (final concentration of 20 nM) were mixed at a ratio of 1:1, and a blank control was set. The mixture of antibody and human IL12 was incubated on ice for 30 min and then added to the cell precipitate at 100 μL/sample. The resulting mixture was well mixed and incubated on ice for 60 min 200 μL of 1% PBSA was added, and the mixture was centrifuged at 700×g for 5 min to discard the supernatant, and then washed twice. Alexa Fluor® 488 anti-His tag antibody (Biolegend, Cat. No.: 652509) was diluted at a ratio of 1:400 and added to each tube at 100 μL. The mixture was well mixed and incubated on ice for 40 min in the absence of light. 200 μL of 1% PBSA was added, and the mixture was centrifuged at 700×g for 5 min to discard the supernatant, and then washed twice. 1% PBSA was added at 200 μL/tube, and the cells were resuspended and transferred to a flow cytometry tube for testing.

[2] = target: T1, Human IL12 (His Tag); test: FACS competition, IL-12-His 20 nM on 293T-IL-12Rβ1&IL-23R cells; antibody 0.12 µg/mL
Procedure: as §1

[3] = target: T2, human IL-23 (IL-23-His-Biotin); test: FACS competition, IL-23-His-Biotin 2 µg/mL on 293T-IL-12Rβ1&IL-23R cells; antibody 0.04 µg/mL
Procedure: (§2) 200 μL of 1% PBSA was added into each sample, and the mixture was centrifuged at 700×g for 5 min to discard the supernatant. According to experiment design, correspondingly diluted antibody (highest final concentration of 30 μg/mL, 3-fold dilution, 8 concentrations in total) and human IL-23 (IL-23-His-Biotin, Akesobio, 20161209) (final concentration of 2 μg/mL) were mixed at a ratio of 1:1, and a blank control was set. The mixture of antibody and human IL23 was incubated on ice for 30 min and then added to the cell precipitate at 100 μL/sample. The resulting mixture was well mixed and incubated on ice for 60 min. 200 μL of 1% PBSA was added, and the mixture was centrifuged at 700×g for 5 min to discard the supernatant, and then washed twice. FITC Steptavidin (Biolegend, Cat. No.: 405202) was diluted at a ratio of 1:500 and added to each tube at 100 μL. The mixture was well mixed and incubated on ice for 40 min in the absence of light. 200 μL of 1% PBSA was added, and the mixture was centrifuged at 700×g for 5 min to discard the supernatant, and then washed twice. 1% PBSA was added at 200 μL/tube, and the cells were resuspended and transferred to a flow cytometry tube for testing.

[4] = target: T2, human IL-23 (IL-23-His-Biotin); test: FACS competition, IL-23-His-Biotin 2 µg/mL on 293T-IL-12Rβ1&IL-23R cells
Procedure: as §2

[5] = target: T1, Human IL12 (His Tag); test: FACS competition, IL-12-His 20 nM on 293T-IL-12Rβ1&IL-23R cells; antibody 30 µg/mL
Procedure: as §1

[6] = target: T1, Human IL12 (His Tag); test: FACS competition, IL-12-His 20 nM on 293T-IL-12Rβ1&IL-23R cells; antibody 0.01 µg/mL
Procedure: as §1

[7] = target: T1, Human IL12 (His Tag); test: FACS competition, IL-12-His 20 nM on 293T-IL-12Rβ1&IL-23R cells; antibody 1.11 µg/mL
Procedure: as §1

[8] = target: T1, Human IL12 (His Tag); test: FACS competition, IL-12-His 20 nM on 293T-IL-12Rβ1&IL-23R cells; antibody 10 µg/mL
Procedure: as §1

[9] = target: T2, human IL-23 (IL-23-His-Biotin); test: FACS competition, IL-23-His-Biotin 2 µg/mL on 293T-IL-12Rβ1&IL-23R cells; antibody 10 µg/mL
Procedure: as §2

MFI [1] [MFI]	MFI [2] [MFI]	MFI [3] [MFI]	EC50 [4] [µg/mL]	MFI [5] [MFI]	MFI [6] [MFI]	MFI [7] [MFI]	MFI [8] [MFI]	MFI [9] [MFI]	Binder
87.5	151	230	0.7	31.6	163	44.6	34.1	12.7	H5L10 (antibody, human IgG1, kappa, V domains shown, human IgG1 / kappa constant regions; also called humanized antibody H5L10) VH: EVQLVQSGAEVKKPGESLKISCQSSGYSFTTYWIGWVRQMPGQGLEWIGIMSPVDSDIRYNPMFRGQVTMSVDKSSSTAYLQWSSLKASDTAMYYCARRRPGQGYFDFWGQGTMVTVSS VL: EIVLTQSPATLSASPGERATISCRASQSVGSWLAWYQQKPGQAPRSLIYAASNLQSGIPARFSGSGSGTDFTLTISSLEPEDFAVYYCQQYNIYPYTFGQGTRLEIKR
159	160	221	4.25	117	169	157	134	136	H5L9 (antibody, human IgG1, kappa, V domains shown, human IgG1 (P01857) / kappa (P01834) constant regions; also called humanized antibody H5L9) VH: EVQLVQSGAEVKKPGESLKISCQSSGYSFTTYWIGWVRQMPGQGLEWIGIMSPVDSDIRYNPMFRGQVTMSVDKSSSTAYLQWSSLKASDTAMYYCARRRPGQGYFDFWGQGTMVTVSS VL: DIQMTQSPSSLSASVGDRVTITCKASQNVGSWLAWYQQKPGKAPKSLIYSASSRQSGVPSRFSGSGSGTDFTLTISSLQPEDFATYYCQQYDIYPFTFGQGTKLEIKR
103	145	224	0.864	33	166	54.3	33.9	14.5	H5L11 (antibody, human IgG1, kappa, V domains shown, human IgG1 / kappa constant regions; also called humanized antibody H5L11) VH: EVQLVQSGAEVKKPGESLKISCQSSGYSFTTYWIGWVRQMPGQGLEWIGIMSPVDSDIRYNPMFRGQVTMSVDKSSSTAYLQWSSLKASDTAMYYCARRRPGQGYFDFWGQGTMVTVSS VL: EIVLTQSPATLSASPGERATISCRASQSVSSWLAWYQQKPGQAPRSLIYSASNLQSGIPARFSGSGSGTDFTLTISSLEPEDFAVYYCQQYNIYPYTFGQGTRLEIKR
113	146	216	0.881	34.9	149	66	46.3	16.7	H5L14 (antibody, human IgG1, kappa, V domains shown, human IgG1 / kappa constant regions; also called humanized antibody H5L14) VH: EVQLVQSGAEVKKPGESLKISCQSSGYSFTTYWIGWVRQMPGQGLEWIGIMSPVDSDIRYNPMFRGQVTMSVDKSSSTAYLQWSSLKASDTAMYYCARRRPGQGYFDFWGQGTMVTVSS VL: EIVLTQSPATLSASPGERATISCRASQSVSSWLAWYQQKPGQAPRSLIYAASNLQSGIPARFSGSGSGTDFTLTISSLEPEDFAVYYCQQYNIYPFTFGQGTRLEIKR
86.6	133	234	0.775	31.8	161	38.5	32.4	12.7	H5L12 (antibody, human IgG1, kappa, V domains shown, human IgG1 / kappa constant regions; also called humanized antibody H5L12) VH: EVQLVQSGAEVKKPGESLKISCQSSGYSFTTYWIGWVRQMPGQGLEWIGIMSPVDSDIRYNPMFRGQVTMSVDKSSSTAYLQWSSLKASDTAMYYCARRRPGQGYFDFWGQGTMVTVSS VL: EIVLTQSPATLSASPGERATISCRASQSVSSWLAWYQQKPGQAPRSLIYAASNRQSGIPARFSGSGSGTDFTLTISSLEPEDFAVYYCQQYNIYPYTFGQGTRLEIKR
95.7	137	216	1.16	28.7	160	31.9	31	11.5	ustekinumab (antibody, V domains shown) VH: EVQLVQSGAEVKKPGESLKISCKGSGYSFTTYWLGWVRQMPGKGLDWIGIMSPVDSDIRYSPSFQGQVTMSVDKSITTAYLQWNSLKASDTAMYYCARRRPGQGYFDFWGQGTLVTVSS VL: DIQMTQSPSSLSASVGDRVTITCRASQGISSWLAWYQQKPEKAPKSLIYAASSLQSGVPSRFSGSGSGTDFTLTISSLQPEDFATYYCQQYNIYPYTFGQGTKLEIK
